Key:
[1] = target: A/Japan/305/1957 (H2N2) hemagglutinin ectodomain (influenza A virus A/Japan/305/1957 (H2N2)); assay: negative-stain EM, single-particle 3D reconstruction
[2] = target: A/Hong Kong/1/1968 (H3N2) hemagglutinin ectodomain, biotinylated (influenza A virus A/Hong Kong/1/1968 (H3N2)); assay: BLI
[3] = target: A/Hong Kong/1/1968 (H3N2) hemagglutinin ectodomain, biotinylated (influenza A virus A/Hong Kong/1/1968 (H3N2)); assay: ITC
[4] = target: A/Hong Kong/1/1968 (H3N2) hemagglutinin ectodomain, biotinylated (influenza A virus A/Hong Kong/1/1968 (H3N2)); assay: BLI; remark: listed apart in the source
[5] = target: A/Vietnam/1203/2004 (H5N1) hemagglutinin ectodomain (influenza A virus A/Vietnam/1203/2004 (H5N1))
[6] = target: hemagglutinin of A/Brisbane/59/2007 (H1N1) (influenza A virus A/Brisbane/59/2007 (H1N1))
[7] = target: hemagglutinin of A/California/04/2009 (H1N1) (influenza A virus A/California/04/2009 (H1N1)) (UniProt C3W5S1)
[8] = target: hemagglutinin of A/Guiyang/1/1957 (H2N2) (influenza A virus A/Guiyang/1/1957 (H2N2))
[9] = target: hemagglutinin of A/Hong Kong/1073/1999 (H9N2) (influenza A virus A/Hong Kong/1073/1999 (H9N2))
[10] = target: hemagglutinin of A/Memphis/3/2008 (H1N1) (influenza A virus A/Memphis/3/2008 (H1N1))
[11] = target: hemagglutinin of A/Virginia/670/1987 (H1N1) (influenza A virus A/Virginia/670/1987 (H1N1))

In the case of C05 Fab (Lys-C digestion of IgG), the stoichiometry N [1] is reported as 3.
With “C05 Fab (recombinant, for binding studies)” the Kd [2] was 430 nM, the Kd [3] was 100 nM and the Kd [4] was 500 nM.
Work on C05 IgG (antibody) yielded an MIC, hemagglutination inhibition (HAI) [5] of over 100 µg/mL, an MIC, hemagglutination inhibition (HAI) [6] of 1.56 µg/mL and an MIC, hemagglutination inhibition (HAI) [7] of over 100 µg/mL. For the same substance, the MIC, microneutralization (MN) [8] was 18 µg/mL, the MIC, microneutralization (MN) [9] was 90 µg/mL and the MIC, hemagglutination inhibition (HAI) [10] was under 2.3 µg/mL. It also gave an MIC, hemagglutination inhibition (HAI) [11] of over 100 µg/mL.

Source: article PMC3538848
